Test results reported in patent publication US20220048967A1 (published 2022).
Numbered stars: 1 amine (or outer) side, 2 acyl side, 3 side chain; on linkers, the order of the positions; unused ones are H or OH. Square brackets hold non-standard residues; d marks the D form. Side chains are listed from the residue outwards. Ends that are not written are not given here. * marks the point of attachment. C20 diacid = O=C(O)CCCCCCCCCCCCCCCCCCC(=O)*; γGlu = O=C(O)[C@H](CCC(=O)[*:2])N[*:1]; AEEA = NCCOCCOCC(=O)O; Aib = CC(C)(N)C(=O)O

B1: Example 29 (peptide)
peptide: Y[Aib]EGTFTSDYSILLDK([AEEA-AEEA-γGlu-C20 diacid])IAQ[Aib]AFIEYLIEGGPSSGAPPPS-NH2
modifications: N-terminus assumed
SMILES: CC[C@H](C)[C@H](NC(=O)[C@H](CCCCNC(=O)COCCOCCNC(=O)COCCOCCNC(=O)CC[C@H](NC(=O)CCCCCCCCCCCCCCCCCCC(=O)O)C(=O)O)NC(=O)[C@H](CC(=O)O)NC(=O)[C@H](CC(C)C)NC(=O)[C@H](CC(C)C)NC(=O)[C@@H](NC(=O)[C@H](CO)NC(=O)[C@H](Cc1ccc(O)cc1)NC(=O)[C@H](CC(=O)O)NC(=O)[C@H](CO)NC(=O)[C@@H](NC(=O)[C@H](Cc1ccccc1)NC(=O)[C@@H](NC(=O)CNC(=O)[C@H](CCC(=O)O)NC(=O)C(C)(C)NC(=O)[C@@H](N)Cc1ccc(O)cc1)[C@@H](C)O)[C@@H](C)O)[C@@H](C)CC)C(=O)N[C@@H](C)C(=O)N[C@@H](CCC(N)=O)C(=O)NC(C)(C)C(=O)N[C@@H](C)C(=O)N[C@@H](Cc1ccccc1)C(=O)N[C@H](C(=O)N[C@@H](CCC(=O)O)C(=O)N[C@@H](Cc1ccc(O)cc1)C(=O)N[C@@H](CC(C)C)C(=O)N[C@H](C(=O)N[C@@H](CCC(=O)O)C(=O)NCC(=O)NCC(=O)N1CCC[C@H]1C(=O)N[C@@H](CO)C(=O)N[C@@H](CO)C(=O)NCC(=O)N[C@@H](C)C(=O)N1CCC[C@H]1C(=O)N1CCC[C@H]1C(=O)N1CCC[C@H]1C(=O)N[C@@H](CO)C(N)=O)[C@@H](C)CC)[C@@H](C)CC
B2: Example 30 (peptide)
peptide: Y[Aib]EGTFTSDYSILLDKIK([AEEA-AEEA-γGlu-C20 diacid])Q[Aib]AFIEYLIEGGPSSGAPPPS-NH2
modifications: N-terminus assumed
SMILES: CC[C@H](C)[C@H](NC(=O)[C@H](CC(C)C)NC(=O)[C@H](Cc1ccc(O)cc1)NC(=O)[C@H](CCC(=O)O)NC(=O)[C@@H](NC(=O)[C@H](Cc1ccccc1)NC(=O)[C@H](C)NC(=O)C(C)(C)NC(=O)[C@H](CCC(N)=O)NC(=O)[C@H](CCCCNC(=O)COCCOCCNC(=O)COCCOCCNC(=O)CC[C@H](NC(=O)CCCCCCCCCCCCCCCCCCC(=O)O)C(=O)O)NC(=O)[C@@H](NC(=O)[C@H](CCCCN)NC(=O)[C@H](CC(=O)O)NC(=O)[C@H](CC(C)C)NC(=O)[C@H](CC(C)C)NC(=O)[C@@H](NC(=O)[C@H](CO)NC(=O)[C@H](Cc1ccc(O)cc1)NC(=O)[C@H](CC(=O)O)NC(=O)[C@H](CO)NC(=O)[C@@H](NC(=O)[C@H](Cc1ccccc1)NC(=O)[C@@H](NC(=O)CNC(=O)[C@H](CCC(=O)O)NC(=O)C(C)(C)NC(=O)[C@@H](N)Cc1ccc(O)cc1)[C@@H](C)O)[C@@H](C)O)[C@@H](C)CC)[C@@H](C)CC)[C@@H](C)CC)C(=O)N[C@@H](CCC(=O)O)C(=O)NCC(=O)NCC(=O)N1CCC[C@H]1C(=O)N[C@@H](CO)C(=O)N[C@@H](CO)C(=O)NCC(=O)N[C@@H](C)C(=O)N1CCC[C@H]1C(=O)N1CCC[C@H]1C(=O)N1CCC[C@H]1C(=O)N[C@@H](CO)C(N)=O
B3: Example 27 (peptide)
peptide: Y[Aib]EGTFTSDYSILK([AEEA-AEEA-γGlu-C20 diacid])DKIAQ[Aib]AFIEYLIEGGPSSGAPPPS-NH2
modifications: N-terminus assumed
SMILES: CC[C@H](C)[C@H](NC(=O)[C@H](CCCCN)NC(=O)[C@H](CC(=O)O)NC(=O)[C@H](CCCCNC(=O)COCCOCCNC(=O)COCCOCCNC(=O)CC[C@H](NC(=O)CCCCCCCCCCCCCCCCCCC(=O)O)C(=O)O)NC(=O)[C@H](CC(C)C)NC(=O)[C@@H](NC(=O)[C@H](CO)NC(=O)[C@H](Cc1ccc(O)cc1)NC(=O)[C@H](CC(=O)O)NC(=O)[C@H](CO)NC(=O)[C@@H](NC(=O)[C@H](Cc1ccccc1)NC(=O)[C@@H](NC(=O)CNC(=O)[C@H](CCC(=O)O)NC(=O)C(C)(C)NC(=O)[C@@H](N)Cc1ccc(O)cc1)[C@@H](C)O)[C@@H](C)O)[C@@H](C)CC)C(=O)N[C@@H](C)C(=O)N[C@@H](CCC(N)=O)C(=O)NC(C)(C)C(=O)N[C@@H](C)C(=O)N[C@@H](Cc1ccccc1)C(=O)N[C@H](C(=O)N[C@@H](CCC(=O)O)C(=O)N[C@@H](Cc1ccc(O)cc1)C(=O)N[C@@H](CC(C)C)C(=O)N[C@H](C(=O)N[C@@H](CCC(=O)O)C(=O)NCC(=O)NCC(=O)N1CCC[C@H]1C(=O)N[C@@H](CO)C(=O)N[C@@H](CO)C(=O)NCC(=O)N[C@@H](C)C(=O)N1CCC[C@H]1C(=O)N1CCC[C@H]1C(=O)N1CCC[C@H]1C(=O)N[C@@H](CO)C(N)=O)[C@@H](C)CC)[C@@H](C)CC
B4: Example 25 (peptide)
peptide: Y[Aib]EGTFTSDYSK([AEEA-AEEA-γGlu-C20 diacid])LLDKIAQ[Aib]AFIEYLIEGGPSSGAPPPS-NH2
modifications: N-terminus assumed
SMILES: CC[C@H](C)[C@H](NC(=O)[C@H](CCCCN)NC(=O)[C@H](CC(=O)O)NC(=O)[C@H](CC(C)C)NC(=O)[C@H](CC(C)C)NC(=O)[C@H](CCCCNC(=O)COCCOCCNC(=O)COCCOCCNC(=O)CC[C@H](NC(=O)CCCCCCCCCCCCCCCCCCC(=O)O)C(=O)O)NC(=O)[C@H](CO)NC(=O)[C@H](Cc1ccc(O)cc1)NC(=O)[C@H](CC(=O)O)NC(=O)[C@H](CO)NC(=O)[C@@H](NC(=O)[C@H](Cc1ccccc1)NC(=O)[C@@H](NC(=O)CNC(=O)[C@H](CCC(=O)O)NC(=O)C(C)(C)NC(=O)[C@@H](N)Cc1ccc(O)cc1)[C@@H](C)O)[C@@H](C)O)C(=O)N[C@@H](C)C(=O)N[C@@H](CCC(N)=O)C(=O)NC(C)(C)C(=O)N[C@@H](C)C(=O)N[C@@H](Cc1ccccc1)C(=O)N[C@H](C(=O)N[C@@H](CCC(=O)O)C(=O)N[C@@H](Cc1ccc(O)cc1)C(=O)N[C@@H](CC(C)C)C(=O)N[C@H](C(=O)N[C@@H](CCC(=O)O)C(=O)NCC(=O)NCC(=O)N1CCC[C@H]1C(=O)N[C@@H](CO)C(=O)N[C@@H](CO)C(=O)NCC(=O)N[C@@H](C)C(=O)N1CCC[C@H]1C(=O)N1CCC[C@H]1C(=O)N1CCC[C@H]1C(=O)N[C@@H](CO)C(N)=O)[C@@H](C)CC)[C@@H](C)CC
B5: Example 26 (peptide)
peptide: Y[Aib]EGTFTSDYSIK([AEEA-AEEA-γGlu-C20 diacid])LDKIAQ[Aib]AFIEYLIEGGPSSGAPPPS-NH2
modifications: N-terminus assumed
SMILES: CC[C@H](C)[C@H](NC(=O)[C@H](CCCCN)NC(=O)[C@H](CC(=O)O)NC(=O)[C@H](CC(C)C)NC(=O)[C@H](CCCCNC(=O)COCCOCCNC(=O)COCCOCCNC(=O)CC[C@H](NC(=O)CCCCCCCCCCCCCCCCCCC(=O)O)C(=O)O)NC(=O)[C@@H](NC(=O)[C@H](CO)NC(=O)[C@H](Cc1ccc(O)cc1)NC(=O)[C@H](CC(=O)O)NC(=O)[C@H](CO)NC(=O)[C@@H](NC(=O)[C@H](Cc1ccccc1)NC(=O)[C@@H](NC(=O)CNC(=O)[C@H](CCC(=O)O)NC(=O)C(C)(C)NC(=O)[C@@H](N)Cc1ccc(O)cc1)[C@@H](C)O)[C@@H](C)O)[C@@H](C)CC)C(=O)N[C@@H](C)C(=O)N[C@@H](CCC(N)=O)C(=O)NC(C)(C)C(=O)N[C@@H](C)C(=O)N[C@@H](Cc1ccccc1)C(=O)N[C@H](C(=O)N[C@@H](CCC(=O)O)C(=O)N[C@@H](Cc1ccc(O)cc1)C(=O)N[C@@H](CC(C)C)C(=O)N[C@H](C(=O)N[C@@H](CCC(=O)O)C(=O)NCC(=O)NCC(=O)N1CCC[C@H]1C(=O)N[C@@H](CO)C(=O)N[C@@H](CO)C(=O)NCC(=O)N[C@@H](C)C(=O)N1CCC[C@H]1C(=O)N1CCC[C@H]1C(=O)N1CCC[C@H]1C(=O)N[C@@H](CO)C(N)=O)[C@@H](C)CC)[C@@H](C)CC
B6: Example 28 (peptide)
peptide: Y[Aib]EGTFTSDYSILLK([AEEA-AEEA-γGlu-C20 diacid])KIAQ[Aib]AFIEYLIEGGPSSGAPPPS-NH2
modifications: N-terminus assumed
SMILES: CC[C@H](C)[C@H](NC(=O)[C@H](CCCCN)NC(=O)[C@H](CCCCNC(=O)COCCOCCNC(=O)COCCOCCNC(=O)CC[C@H](NC(=O)CCCCCCCCCCCCCCCCCCC(=O)O)C(=O)O)NC(=O)[C@H](CC(C)C)NC(=O)[C@H](CC(C)C)NC(=O)[C@@H](NC(=O)[C@H](CO)NC(=O)[C@H](Cc1ccc(O)cc1)NC(=O)[C@H](CC(=O)O)NC(=O)[C@H](CO)NC(=O)[C@@H](NC(=O)[C@H](Cc1ccccc1)NC(=O)[C@@H](NC(=O)CNC(=O)[C@H](CCC(=O)O)NC(=O)C(C)(C)NC(=O)[C@@H](N)Cc1ccc(O)cc1)[C@@H](C)O)[C@@H](C)O)[C@@H](C)CC)C(=O)N[C@@H](C)C(=O)N[C@@H](CCC(N)=O)C(=O)NC(C)(C)C(=O)N[C@@H](C)C(=O)N[C@@H](Cc1ccccc1)C(=O)N[C@H](C(=O)N[C@@H](CCC(=O)O)C(=O)N[C@@H](Cc1ccc(O)cc1)C(=O)N[C@@H](CC(C)C)C(=O)N[C@H](C(=O)N[C@@H](CCC(=O)O)C(=O)NCC(=O)NCC(=O)N1CCC[C@H]1C(=O)N[C@@H](CO)C(=O)N[C@@H](CO)C(=O)NCC(=O)N[C@@H](C)C(=O)N1CCC[C@H]1C(=O)N1CCC[C@H]1C(=O)N1CCC[C@H]1C(=O)N[C@@H](CO)C(N)=O)[C@@H](C)CC)[C@@H](C)CC

target: T1, human GIP receptor (human, UniProt P48546 22-466); assay: cell-based or functional assay
T1 sequence (looked up): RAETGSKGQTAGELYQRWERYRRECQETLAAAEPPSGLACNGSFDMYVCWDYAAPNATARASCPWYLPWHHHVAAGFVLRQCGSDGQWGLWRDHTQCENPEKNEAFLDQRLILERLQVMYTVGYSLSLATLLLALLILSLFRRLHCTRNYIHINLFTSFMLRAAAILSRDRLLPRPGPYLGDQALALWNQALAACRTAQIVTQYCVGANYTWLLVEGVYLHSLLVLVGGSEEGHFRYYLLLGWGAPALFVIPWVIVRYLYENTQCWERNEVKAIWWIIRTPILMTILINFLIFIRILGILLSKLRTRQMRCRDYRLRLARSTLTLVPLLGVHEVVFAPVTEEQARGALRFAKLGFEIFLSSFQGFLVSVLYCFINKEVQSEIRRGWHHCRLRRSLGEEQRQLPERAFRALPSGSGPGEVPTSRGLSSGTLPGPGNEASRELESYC

Which results are given for B1?
hGIPR cAMP EC50 ratio: 0.536; hGIPR cAMP Rel EC50: 0.32 nM

Which results are given for B2?
hGIPR cAMP EC50 ratio: 1.5; hGIPR cAMP Rel EC50: 0.114 nM

How did the “hGIPR cAMP EC50 ratio” value turn out when B3 was run?
The value was 1.9.

And the “hGIPR cAMP Rel EC50” value?
The value was 0.0789 nM.

What does the source list for B4?
hGIPR cAMP EC50 ratio: 0.636; hGIPR cAMP Rel EC50: 0.23 nM

B5 was tested. Which “hGIPR cAMP EC50 ratio” value did it give?
The value was 0.585.

What about the “hGIPR cAMP Rel EC50” value of the same binder?
Its value is 0.251 nM.

For B6, which “hGIPR cAMP EC50 ratio” value is on record?
Its value is 0.106.

And the “hGIPR cAMP Rel EC50” value?
The value was 1.66 nM.

target: human GLP-1 receptor (human, UniProt P43220 24-463); assay: cell-based or functional assay

What does the source list for B1?
hGLP1R cAMP EC50 ratio: 0.0671; hGLP1R cAMP Rel EC50: 0.999 nM

How did the “hGLP1R cAMP EC50 ratio” value turn out when B2 was run?
Its value is 0.0331.

What about the “hGLP1R cAMP Rel EC50” value of the same binder?
Its value is 1.84 nM.

For B3, which “hGLP1R cAMP EC50 ratio” value is on record?
The value was 0.123.

And the “hGLP1R cAMP Rel EC50” value?
The value was 0.557 nM.

For B4, which “hGLP1R cAMP EC50 ratio” value is on record?
Its value is 0.197.

And the “hGLP1R cAMP Rel EC50” value?
The value was 0.356 nM.

B5 was tested. Which “hGLP1R cAMP EC50 ratio” value did it give?
Its value is 0.238.

And the “hGLP1R cAMP Rel EC50” value?
Its value is 0.293 nM.

Which results are given for B6?
hGLP1R cAMP EC50 ratio: 0.00166; hGLP1R cAMP Rel EC50: 32.7 nM
